The values below come from US20060105385, “Xenobiotic related induction of gene expression” (The University of Sydney, published 2006).

What all share (settings): label: 32P
The target of series [1] is T1, hPXR-RXR heterodimer (human pregnane X receptor / retinoid X receptor) (UniProt O75469;P19793 O75469:1-434,P19793:1-462). Put plainly: EMSA; no shift apparent; mutation of the site lowers reporter to 52% of wild type. Here is the method: (§1) The hPXR is an orphan nuclear receptor, belonging to the nuclear receptor gene superfamily. […] In order to evaluate the affinity of these putative response elements for HPXR-RXR heterodimers, electromobility shift assays (EMSA) were performed using with in-vitro transcribed/translated hPXR and RXR.
On the technique in general: In EMSA bound probe runs differently from free probe, usually more slowly.

Series [2] addresses T1, hPXR-RXR heterodimer (human pregnane X …). Put plainly: EMSA; efficient gel shift. Here is the method:
as §1

The target is the same in series [3]. The series is described as follows: EMSA; no shift apparent; described as functionally important by mutagenesis. On the procedure:
as §1

T1 sequence (O75469 whole entry, chain 1 of 2): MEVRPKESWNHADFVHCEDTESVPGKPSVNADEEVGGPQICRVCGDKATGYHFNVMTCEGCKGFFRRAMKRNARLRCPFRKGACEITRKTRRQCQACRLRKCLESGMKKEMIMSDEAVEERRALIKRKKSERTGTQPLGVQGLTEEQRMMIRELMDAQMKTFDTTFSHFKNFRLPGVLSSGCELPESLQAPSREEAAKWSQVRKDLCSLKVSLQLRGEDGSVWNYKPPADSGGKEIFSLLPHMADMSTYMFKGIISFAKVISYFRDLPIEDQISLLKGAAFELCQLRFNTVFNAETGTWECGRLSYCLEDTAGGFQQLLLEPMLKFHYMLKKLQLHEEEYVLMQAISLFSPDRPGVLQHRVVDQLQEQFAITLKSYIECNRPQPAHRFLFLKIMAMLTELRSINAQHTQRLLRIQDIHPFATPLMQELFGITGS
T1 sequence (P19793 whole entry, chain 2 of 2): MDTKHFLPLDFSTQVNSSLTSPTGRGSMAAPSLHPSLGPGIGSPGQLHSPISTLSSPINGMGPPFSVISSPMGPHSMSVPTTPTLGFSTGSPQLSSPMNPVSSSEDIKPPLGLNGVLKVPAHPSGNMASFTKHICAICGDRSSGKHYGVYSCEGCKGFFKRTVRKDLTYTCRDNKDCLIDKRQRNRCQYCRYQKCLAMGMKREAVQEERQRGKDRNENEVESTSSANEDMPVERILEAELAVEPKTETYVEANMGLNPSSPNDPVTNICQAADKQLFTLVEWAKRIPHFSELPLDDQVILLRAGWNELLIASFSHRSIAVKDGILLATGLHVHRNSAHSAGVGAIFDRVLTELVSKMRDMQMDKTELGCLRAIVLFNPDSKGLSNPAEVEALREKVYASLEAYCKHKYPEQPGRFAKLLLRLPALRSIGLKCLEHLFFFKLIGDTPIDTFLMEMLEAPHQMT

B1: XREM-DR6 (dsDNA)
DNA 1: AGGTGAATCACAAGCTGAACTTCT
DNA 2: AGAAGTTCAGCTTGTGATTCACCT
For B1, the binding result in series [1] is given as “no binding”.

B2: Prox-ER6 (dsDNA)
DNA 1: ATATGAACTCAAAGGAGGTCAGTG
DNA 2: CACTGACCTCCTTTGAGTTCATAT
For B2, the binding result in series [2] is recorded as “binds”.

B3: XREM-DR3-1 (dsDNA)
DNA 1: GAATGAACTTGCTGACCCTCT
DNA 2: AGAGGGTCAGCAAGTTCATTC
Take B3: in series [2], the binding result is on record as “binds”.

B4: XREM-DR3-2 (dsDNA)
DNA 1: ATATATTGTTATTGAACTATC
DNA 2: GATAGTTCAATAACAATATAT
With B4, in series [3], the binding result is recorded as “no binding”.
